Patent US20060286112A1

Molecular target: human VLA-1 (alpha 1/beta 1, CD49a/CD29) on IL-2 stimulated human PBMC / T cells (human) (UniProt P56199)
Assay: cell-based or functional assay

% adhesion of IL-2 activated T cells to collagen IV vs no antibody, 10 µg/ml, +PMA: 109%
% adhesion of IL-2 activated T cells to collagen IV vs no antibody, 10 µg/ml, -PMA: 106%
% adhesion of T cells to collagen IV vs no antibody, 5 nM mAb, 10 ng/ml PMA: 95.6%
% adhesion of T cells to collagen IV vs no antibody, 5 nM mAb, no PMA: 9.5%
Substance: Hu IgG4 (antibody)
